Laboratory results taken from PMC9352680, “A comprehensive thermodynamic model for RNA binding by the Saccharomyces cerevisiae Pumilio protein PUF4”.

T1: PUF4 RNA-binding domain (Saccharomyces cerevisiae, UniProt P25339 537-888)
T1 sequence: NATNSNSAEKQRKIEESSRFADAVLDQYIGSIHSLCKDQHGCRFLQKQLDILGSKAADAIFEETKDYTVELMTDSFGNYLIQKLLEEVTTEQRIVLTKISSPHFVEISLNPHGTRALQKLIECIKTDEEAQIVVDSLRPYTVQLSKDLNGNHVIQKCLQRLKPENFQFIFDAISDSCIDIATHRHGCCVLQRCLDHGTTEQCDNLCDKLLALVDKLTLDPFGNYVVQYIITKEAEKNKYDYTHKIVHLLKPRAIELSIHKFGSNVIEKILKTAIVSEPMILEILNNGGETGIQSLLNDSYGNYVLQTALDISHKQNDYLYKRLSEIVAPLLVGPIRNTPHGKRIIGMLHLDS


target: T1, PUF4 RNA-binding domain; test: Mg; RNA-MaP; 20 mM Na-HEPES pH 7.4, 30 mM KOAc, 0.75 mM MgCl2, 0.1% Tween-20, 5% glycerol, 0.1 mg/mL BSA, 2 mM DTT; 25 C; 0.0125-409.6 nM protein; conditions: tags: N-His6-TEV cleaved; C-SNAP kept, Cy3B-labelled; label: tethered on chip by stalled RNA polymerase

| Binder | Kd [nM] |
| --- | --- |
| UCUCUUUGUAUAUUAUUCCUCUCUU (ssRNA) [Ie_S1_P4E.1_K4.1_C4.1_H4.1_A4.1_F4.1_[+9TTCC]_T4.1] | 0.476 |
| UCUCUUUGUAUAUCCUAUCUCUU (ssRNA) [Ie_S1_P4E.1_K4.1_C4.1_H4.1_A4.1_[+7CC]_F4.1_T4.1] | 14.2 |
| UCUCUUUGUAUAUUACUCUUCUCUU (ssRNA) [Ie_S1_P4E.1_K4.1_C4.1_H4.1_A4.1_F4.1_[+9CTCT]_T4.1] | 0.906 |
| UCUCUUUGUAUACCUCUUUAUCUCUU (ssRNA) [Ie_S1_P4E.1_K4.1_C4.1_H4.1_A4.1_[+6CCTCT]_F4.1_T4.1] | 27.5 |
| UCUCUUUGUAUAUUACCUCUCUU (ssRNA) [Ie_S1_P4E.1_K4.1_C4.1_H4.1_A4.1_F4.1_[+9CC]_T4.1] | 0.729 |
| UCUCUUUGUAUACCUCUUAUCUCUU (ssRNA) [Ie_S1_P4E.1_K4.1_C4.1_H4.1_A4.1_[+6CCTC]_F4.1_T4.1] | 41.5 |
| UCUCUUUGUAUAUUAUUCCUUCUCUU (ssRNA) [Ie_S1_P4E.1_K4.1_C4.1_H4.1_A4.1_F4.1_[+9TTCCT]_T4.1] | 0.347 |
| UCUCUUUGUAUAUUUCAUCUCUU (ssRNA) [Ie_S1_P4E.1_K4.1_C4.1_H4.1_A4.1_F4.1_[+8TC]_T4.1] | 5.5 |
| UCUCUUUGUAUAUUUUCCAUCUCUU (ssRNA) [Ie_S1_P4E.1_K4.1_C4.1_H4.1_A4.1_F4.1_[+8TTCC]_T4.1] | 5.8 |
| UCUCUUUGUAUACCCUUUAUCUCUU (ssRNA) [Ie_S1_P4E.1_K4.1_C4.1_H4.1_A4.1_[+6CCCT]_F4.1_T4.1] | 48.6 |
| UCUCUUUGUAUAUUCCUCUAUCUCUU (ssRNA) [Ie_S1_P4E.1_K4.1_C4.1_H4.1_A4.1_F4.1_[+8CCTCT]_T4.1] | 6.71 |
| UCUCUUUGUAUAUUACUCUCUCUCUU (ssRNA) [Ie_S1_P4E.1_K4.1_C4.1_H4.1_A4.1_F4.1_[+9CTCTC]_T4.1] | 0.699 |
| UCUCUUUGUAUAUCCCUUAUCUCUU (ssRNA) [Ie_S1_P4E.1_K4.1_C4.1_H4.1_A4.1_[+7CCCT]_F4.1_T4.1] | 23.4 |
| UCUCUUUGUAUAUCCUCUAUCUCUU (ssRNA) [Ie_S1_P4E.1_K4.1_C4.1_H4.1_A4.1_[+7CCTC]_F4.1_T4.1] | 25.3 |
| UCUCUUUGUAUAUUACCCUUUCUCUU (ssRNA) [Ie_S1_P4E.1_K4.1_C4.1_H4.1_A4.1_F4.1_[+9CCCTT]_T4.1] | 0.925 |
| UCUCUUUGUAUAUUAUCUUCUCUU (ssRNA) [Ie_S1_P4E.1_K4.1_C4.1_H4.1_A4.1_F4.1_[+9TCT]_T4.1] | 0.632 |
| UCUCUUUGUAUAUUACCUUCUCUU (ssRNA) [Ie_S1_P4E.1_K4.1_C4.1_H4.1_A4.1_F4.1_[+9CCT]_T4.1] | 0.795 |
| UCUCUUUGUAUAUCCUCUUAUCUCUU (ssRNA) [Ie_S1_P4E.1_K4.1_C4.1_H4.1_A4.1_[+7CCTCT]_F4.1_T4.1] | 31.7 |
| UCUCUUUGUAUAUCUCUUAUCUCUU (ssRNA) [Ie_S1_P4E.1_K4.1_C4.1_H4.1_A4.1_[+6TCTC]_F4.1_T4.1] | 24.4 |
| UCUCUUUGUAUAUUACCUCUUCUCUU (ssRNA) [Ie_S1_P4E.1_K4.1_C4.1_H4.1_A4.1_F4.1_[+9CCTCT]_T4.1] | 1.58 |

| Binder | Kd [nM] |
| --- | --- |
| UCUCUUUGUAUAUCCCUAUCUCUU (ssRNA) [Ie_S1_P4E.1_K4.1_C4.1_H4.1_A4.1_[+7CCC]_F4.1_T4.1] | 31.9 |
| UCUCUUUGUAUACUUUUAUCUCUU (ssRNA) [Ie_S1_P4E.1_K4.1_C4.1_H4.1_A4.1_[+6CTT]_F4.1_T4.1] | 6.8 |
| UCUCUUUGUAUAUUACUUCUCUU (ssRNA) [Ie_S1_P4E.1_K4.1_C4.1_H4.1_A4.1_F4.1_[+9CT]_T4.1] | 0.578 |
| UCUCUUUGUAUACUCUCUUAUCUCUU (ssRNA) [Ie_S1_P4E.1_K4.1_C4.1_H4.1_A4.1_[+6CTCTC]_F4.1_T4.1] | 10.9 |
| UCUCUUUGUAUAUUCCCUAUCUCUU (ssRNA) [Ie_S1_P4E.1_K4.1_C4.1_H4.1_A4.1_F4.1_[+8CCCT]_T4.1] | 6.32 |
| Ic_S2_P3E.1_K3.1_C3.1_H3.1_A3.1_F3.1_[T7A]_[A8T]_T3.1 (ssRNA) RNA: UUUGAUUAAUAUGAUAUCGUUCUUUCUUGUAUAAUUUCUUUCUCGAUAUCAUAUUAAUCUUU | 6.77 |
| Ib_S2_P3E.1_K3.1_C3.1_H3.1_[A4T]_A3.1_F3.1_[T7A]_T3.1 (ssRNA) RNA: UUUGAUUAAUAUGAUAUCGUUCUUUCUUGUUUAAAUUCUUUCUCGAUAUCAUAUUAAUCUUU | 1590 |
| Ib_S2_P3E.1_K3.1_C3.1_H3.1_[G2C]_A3.1_F3.1_[T7A]_T3.1 (ssRNA) RNA: UUUGAUUAAUAUGAUAUCGUUCUUUCUUCUAUAAAUUCUUUCUCGAUAUCAUAUUAAUCUUU | > 2300 |
| Ib_S2_P3E.1_K3.1_C3.1_H3.1_[T1C]_A3.1_F3.1_[T7C]_T3.1 (ssRNA) RNA: UUUGAUUAAUAUGAUAUCGUUCUUUCUCGUAUACAUUCUUUCUCGAUAUCAUAUUAAUCUUU | 649 |
| Ib_S2_P3E.1_K3.1_C3.1_H3.1_[A4G]_A3.1_F3.1_[T7A]_T3.1 (ssRNA) RNA: UUUGAUUAAUAUGAUAUCGUUCUUUCUUGUGUAAAUUCUUUCUCGAUAUCAUAUUAAUCUUU | 35.3 |
| Ib_S2_P3E.1_K3.1_C3.1_H3.1_[T1C]_A3.1_F3.1_[T7A]_T3.1 (ssRNA) RNA: UUUGAUUAAUAUGAUAUCGUUCUUUCUCGUAUAAAUUCUUUCUCGAUAUCAUAUUAAUCUUU | > 2300 |
| UCUCUUUGUAUAUUCUCAUCUCUU (ssRNA) [Ie_S1_P4E.1_K4.1_C4.1_H4.1_A4.1_F4.1_[+8CTC]_T4.1] | 10.8 |
| UCUCUUUGUAUAUUAUUUCUCUU (ssRNA) [Ie_S1_P4E.1_K4.1_C4.1_H4.1_A4.1_F4.1_[+9TT]_T4.1] | 0.545 |
| UCUCUUUGUAUAUUUUUAUCUCUU (ssRNA) [Ie_S1_P4E.1_K4.1_C4.1_H4.1_A4.1_[+7TTT]_F4.1_T4.1] | 5.93 |
| UCUCUUUGUAUAUUAUCUCUCUU (ssRNA) [Ie_S1_P4E.1_K4.1_C4.1_H4.1_A4.1_F4.1_[+9TC]_T4.1] | 0.435 |
| UCUCUUUGUAUAUCUCUUUAUCUCUU (ssRNA) [Ie_S1_P4E.1_K4.1_C4.1_H4.1_A4.1_[+6TCTCT]_F4.1_T4.1] | 14.7 |
| UCUCUUUGUAUAUUUUCCUAUCUCUU (ssRNA) [Ie_S1_P4E.1_K4.1_C4.1_H4.1_A4.1_F4.1_[+8TTCCT]_T4.1] | 5.96 |
| UCUCUUUGUAUAUUUCCUUAUCUCUU (ssRNA) [Ie_S1_P4E.1_K4.1_C4.1_H4.1_A4.1_[+7TTCCT]_F4.1_T4.1] | 3.91 |
| UCUCUUUGUAUAUUCUCUCAUCUCUU (ssRNA) [Ie_S1_P4E.1_K4.1_C4.1_H4.1_A4.1_F4.1_[+8CTCTC]_T4.1] | 5.64 |
| UCUCUUUGUAUAUUUCUAUCUCUU (ssRNA) [Ie_S1_P4E.1_K4.1_C4.1_H4.1_A4.1_[+7TTC]_F4.1_T4.1] | 5.38 |

| Binder | Kd [nM] |
| --- | --- |
| UCUCUUUGUAUAUUCCUCAUCUCUU (ssRNA) [Ie_S1_P4E.1_K4.1_C4.1_H4.1_A4.1_F4.1_[+8CCTC]_T4.1] | 6.83 |
| UCUCUUUGUAUAUCUUUAUCUCUU (ssRNA) [Ie_S1_P4E.1_K4.1_C4.1_H4.1_A4.1_[+6TCT]_F4.1_T4.1] | 13.9 |
| UCUCUUUGUAUAUUUCCUAUCUCUU (ssRNA) [Ie_S1_P4E.1_K4.1_C4.1_H4.1_A4.1_[+7TTCC]_F4.1_T4.1] | 6.97 |
| UCUCUUUGUAUAUUACCUCUCUCUU (ssRNA) [Ie_S1_P4E.1_K4.1_C4.1_H4.1_A4.1_F4.1_[+9CCTC]_T4.1] | 0.706 |
| UCUCUUUGUAUAUUACCCUCUCUU (ssRNA) [Ie_S1_P4E.1_K4.1_C4.1_H4.1_A4.1_F4.1_[+9CCC]_T4.1] | 1.11 |
| UCUCUUUGUAUAUUCUCUAUCUCUU (ssRNA) [Ie_S1_P4E.1_K4.1_C4.1_H4.1_A4.1_F4.1_[+8CTCT]_T4.1] | 7.11 |
| UCUCUUUGUAUAUUCUAUCUCUU (ssRNA) [Ie_S1_P4E.1_K4.1_C4.1_H4.1_A4.1_F4.1_[+8CT]_T4.1] | 5.4 |
| UCUCUUUGUAUAUUAUCCUCUCUU (ssRNA) [Ie_S1_P4E.1_K4.1_C4.1_H4.1_A4.1_F4.1_[+9TCC]_T4.1] | 0.48 |
| UCUCUUUGUAUAUUAUCUCUUCUCUU (ssRNA) [Ie_S1_P4E.1_K4.1_C4.1_H4.1_A4.1_F4.1_[+9TCTCT]_T4.1] | 0.824 |
| UCUCUUUGUAUAUUUUCAUCUCUU (ssRNA) [Ie_S1_P4E.1_K4.1_C4.1_H4.1_A4.1_F4.1_[+8TTC]_T4.1] | 6.76 |
| UCUCUUUGUAUACUCUUUAUCUCUU (ssRNA) [Ie_S1_P4E.1_K4.1_C4.1_H4.1_A4.1_[+6CTCT]_F4.1_T4.1] | 12.6 |
| UCUCUUUGUAUAUUAUCUCUCUCUU (ssRNA) [Ie_S1_P4E.1_K4.1_C4.1_H4.1_A4.1_F4.1_[+9TCTC]_T4.1] | 0.601 |
| UCUCUUUGUAUAUCUCUCUAUCUCUU (ssRNA) [Ie_S1_P4E.1_K4.1_C4.1_H4.1_A4.1_[+7CTCTC]_F4.1_T4.1] | 15.9 |
| UCUCUUUCGUAUUAUUAUCUCUU (ssRNA) [Ie_S1_P5E.1_K5.1_C5.1_H5.1_[+1C]_A5.1_F5.1_T5.1] | 1320 |
| UCUCUUUGUAUAUUACUCUCUCUU (ssRNA) [Ie_S1_P4E.1_K4.1_C4.1_H4.1_A4.1_F4.1_[+9CTC]_T4.1] | 1.09 |
| UCUCUUUGUAUAUUAUUCUCUU (ssRNA) [Ie_S1_P4E.1_K4.1_C4.1_H4.1_A4.1_F4.1_[+9T]_T4.1] | 0.531 |
| UCUCUUUGUAUAUUAUUCUCUCUU (ssRNA) [Ie_S1_P4E.1_K4.1_C4.1_H4.1_A4.1_F4.1_[+9TTC]_T4.1] | 0.488 |
| UCUCUUUGUAUAUUAUUUUCUCUU (ssRNA) [Ie_S1_P4E.1_K4.1_C4.1_H4.1_A4.1_F4.1_[+9TTT]_T4.1] | 0.453 |
| UCUCUUUGUAUAUUUCUCUAUCUCUU (ssRNA) [Ie_S1_P4E.1_K4.1_C4.1_H4.1_A4.1_F4.1_[+8TCTCT]_T4.1] | 6.66 |
| UCUCUUUGUAUAUUCCUAUCUCUU (ssRNA) [Ie_S1_P4E.1_K4.1_C4.1_H4.1_A4.1_F4.1_[+8CCT]_T4.1] | 8.2 |
